In this test the target is Mycobacterium thermoresistibile (Mth) Class Ib ribonucleotide reductase catalytic α-subunit (NrdE), purified alone (M. thermoresistibile). Put plainly: SEC-MALS. A general note: SEC sorts molecules by how far they enter the pores of the column.

In general, stoichiometry N refers to a count of units in the complex or per binding partner. Substance “Mycobacterium thermoresistibile (Mth) Class Ib ribonucleotide reductase catalytic α-subunit (NrdE), purified alone (enzyme)” registered a stoichiometry N of 2.

These data come from publication doi:10.64898/2025.12.21.695763.
